The results in this text go back to patent publication US20160289285A1 (Molecular Partners, published 2016).

Positions count from the first letter of the chain named. Values joined by “and” are separate entries in the source; they are usually repeats but may differ in a detail not shown here. Identical values can stand only once. Like-named read-outs stand apart in the source and are kept apart here. Bounds are passed on as bounds.

The chains are these.
T1: mouse VEGF-A (mouse, UniProt Q00731-2 27-190, limits assumed)
T1 sequence (looked up): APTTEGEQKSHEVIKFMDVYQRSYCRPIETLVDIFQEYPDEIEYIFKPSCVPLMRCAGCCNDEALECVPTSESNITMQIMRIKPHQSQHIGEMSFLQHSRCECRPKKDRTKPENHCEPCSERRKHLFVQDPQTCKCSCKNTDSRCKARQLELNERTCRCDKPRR

T2: rat VEGF-A (rat, UniProt P16612-2 27-190, limits assumed)
T2 sequence (looked up): T1 sequence (looked up) with S10A, I14V, I75V

T3: Human VEGF-C (human, UniProt P49767 103-227, limits assumed)
T3 sequence (looked up): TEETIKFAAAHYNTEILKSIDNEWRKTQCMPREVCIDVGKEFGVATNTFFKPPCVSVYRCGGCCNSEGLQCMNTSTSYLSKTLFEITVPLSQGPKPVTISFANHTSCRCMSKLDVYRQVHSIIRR

B1: human VEGF-A (ligand, UniProt P15692-4 27-191, looked up)
chain: APMAEGGGQNHHEVVKFMDVYQRSYCHPIETLVDIFQEYPDEIEYIFKPSCVPLMRCGGCCNDEGLECVPTEESNITMQIMRIKPHQGQHIGEMSFLQHNKCECRPKKDRARQENPCGPCSERRKHLFVQDPQTCKCSCKNTDSRCKARQLELNERTCRCDKPRR
notes: Recombinant, bought or produced in CHO or Pichia pastoris; also called hVEGF-A
B2: Protein #134 (designed binder)
chain: GSDLGKKLLEAARAGQDDEVRELLKAGADVNAKDYFSHTPLHLAARNGHLKIVEVLLKAGADVNAKDFAGKTPLHLAANEGHLEIVEVLLKAGADVNAQDIFGKTPADIAADAGHEDIAEVLQKAAGSPTPTPTTPTPTPTTPTPTPTGSDLGKKLLEAARAGQDDEVRILLKAGADVNAKDRYGDTPLHLAADIGHLEIVEVLLKAGADVNAEDYFGNTPLHLAASYGHLEIVEVLLKAGADVNAKDDYGNTPLHLAANTGHLEIVEVLLKAGADVNAQDKSGKTPADLAADAGHEDIAEVLQKAAGSPTPTPTTPTPTPTTPTPTPTGSDLDKKLLEAARAGQDDEVRILLKAGADVNAKDSTGWTPLHLAAPWGHPEIVEVLLKAGADVNAKDFQGWTPLHLAAAAGHLEIVEVLLKAGADVNAQDKSGKTPADLAADAGHEDIAEVLQKAAGSPTPTPTTPTPTPTTPTPTPTGSDLGKKLLEAARAGQDDEVRELLKAGADVNAKDYFSHTPLHLAARNGHLKIVEVLLKAGADVNAKDFAGKTPLHLAANEGHLEIVEVLLKAGADVNAQDIFGKTPADIAADAGHEDIAEVLQKAA
notes: Four designed ankyrin repeat domains (serum albumin, HGF, VEGF-A, serum albumin); one molecule is used here

Test [1] concerns the target T4, human HGF (human, UniProt P14210 32-728).
T4 construct: also called hepatocyte growth factor
In words: SPR (ProteOn), human HGF immobilised, injection scheme PBST-hVEGF-A-PBST. Here is the method:
FIG. 8. SPR analysis of recombinant binding proteins. […] The control injections indicate that no unspecific interaction occurs. RU: resonance units; t: time in seconds.
SPR was measured in a similar way as described in Example 2, with the following setup. 2700 RU human HGF were immobilized on a sensor chip. […] Following this, 100 nM human VEGF-A or PBST were injected for 180 seconds (leading to saturation) followed by a PBST wash of 360 seconds. Finally, 100 nM human serum albumin or PBST were injected for 180 seconds followed by a PBST wash of 600 seconds.

Test [2] addresses B1. In words: cell-based or functional assay.
For test [3], the target named is T4, human HGF. In words: cell-based or functional assay.
The target in test [4] is B1. Description: ELISA, immobilised target. The procedure: (§1) 100 μl or 50 μl of 20 nM target (VEGF-A, HGF, or serum albumin) in PBS per well were immobilized in a Maxisorp plate (Nunc, Denmark) overnight at 4° C. After washing 5 times with 300 μl PBST (PBS supplemented with 0.1% Tween 20), the wells were blocked with 300 μl PBST-C (PBST supplemented with 0.25% casein) for 2 h at room temperature with shaking at 450 rpm on a Titramax 1000 shaker (Heidolph, Germany). […] After washing 5 times as described above, bound anti-designed ankyrin repeat domain antibody was detected using 100 μl or 50 μl/well goat anti-rabbit IgG-HRP conjugate in PBST-C for 1 h at room temperature with shaking at 450 rpm. After washing 5 times as described above, the ELISA was then developed using 100 μl BM soluble blue POD substrate (Roche, Switzerland), diluted 1:4 in water. The reaction was stopped after 5 min using 100 μl 1 M H₂SO₄. The OD (OD 450 nm-OD 620 nm) was then recorded.
(§2) Cynomolgus monkey VEGF-A is identical to human VEGF-A and was thus not tested separately.
In general terms: ELISA stands for enzyme-linked immunosorbent assay.

A further test addresses mouse serum albumin (mouse, UniProt P07724 25-608). Description: ELISA, immobilised target. Here is the method:
as §1, §2

The target of the next test is rat serum albumin (rat, UniProt P02770 25-608). In words: ELISA, immobilised target. The procedure:
as §1, §2

For another test, the target named is dog serum albumin (dog, UniProt P49822 25-608). Description: ELISA, immobilised target. Here is the method: as §1, §2
Sequence of dog serum albumin (P49822 25-608 limits assumed): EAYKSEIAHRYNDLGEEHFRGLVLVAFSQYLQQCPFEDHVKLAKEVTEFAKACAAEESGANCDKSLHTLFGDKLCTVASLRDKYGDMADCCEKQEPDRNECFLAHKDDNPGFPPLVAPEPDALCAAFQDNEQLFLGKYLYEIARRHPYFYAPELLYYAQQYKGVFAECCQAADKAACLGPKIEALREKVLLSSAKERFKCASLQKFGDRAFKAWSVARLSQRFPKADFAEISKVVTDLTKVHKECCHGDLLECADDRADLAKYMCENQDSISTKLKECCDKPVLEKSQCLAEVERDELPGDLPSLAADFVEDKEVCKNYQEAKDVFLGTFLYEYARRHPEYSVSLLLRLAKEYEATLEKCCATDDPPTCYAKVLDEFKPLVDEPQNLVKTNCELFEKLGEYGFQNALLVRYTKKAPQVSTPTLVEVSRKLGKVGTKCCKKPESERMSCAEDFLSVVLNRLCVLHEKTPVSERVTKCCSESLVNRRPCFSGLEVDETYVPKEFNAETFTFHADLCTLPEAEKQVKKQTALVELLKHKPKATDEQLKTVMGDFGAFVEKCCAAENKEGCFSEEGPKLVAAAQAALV
For the next test, the target named is T1, mouse VEGF-A. Description: ELISA, immobilised target. Here is the method: as §1, §2
The next test concerns the target T2, rat VEGF-A. In words: ELISA, immobilised target. The procedure: as §1, §2
Test [5] deals with T4, human HGF. Description: ELISA, immobilised target. The procedure: as §1, §2
In a further test the target is cynomolgus monkey HGF (cynomolgus monkey, UniProt C9E9X5 32-728). In words: ELISA, immobilised target. The procedure: as §1, §2
The target of the next test is mouse HGF (mouse, UniProt Q08048 33-728). Description: ELISA, immobilised target. The procedure:
as §1, §2

In another test the target is T5, human serum albumin (human, UniProt P02768 25-609).
T5 construct: For SEC-MALS purified from CSL Behring 20% solution; also called HSA; SA (human)
T5 sequence (P02768 25-609 limits assumed): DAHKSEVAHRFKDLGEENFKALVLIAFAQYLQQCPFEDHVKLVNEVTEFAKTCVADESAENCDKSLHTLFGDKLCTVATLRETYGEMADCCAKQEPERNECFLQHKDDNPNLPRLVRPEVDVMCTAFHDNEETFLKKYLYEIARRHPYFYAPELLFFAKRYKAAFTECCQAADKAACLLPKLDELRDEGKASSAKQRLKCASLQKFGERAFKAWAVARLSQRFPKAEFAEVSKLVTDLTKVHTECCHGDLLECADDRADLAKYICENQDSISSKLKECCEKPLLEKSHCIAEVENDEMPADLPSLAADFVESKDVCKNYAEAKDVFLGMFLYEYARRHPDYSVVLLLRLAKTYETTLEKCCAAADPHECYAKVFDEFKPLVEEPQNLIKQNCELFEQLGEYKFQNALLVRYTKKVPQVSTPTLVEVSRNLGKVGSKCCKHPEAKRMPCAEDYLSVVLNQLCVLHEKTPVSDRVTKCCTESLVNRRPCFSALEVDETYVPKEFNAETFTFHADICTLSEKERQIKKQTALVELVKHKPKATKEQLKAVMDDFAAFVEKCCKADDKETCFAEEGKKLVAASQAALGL
In words: ELISA, immobilised target. The procedure: as §1, §2

For test [6], the target named is cynomolgus monkey serum albumin (cynomolgus monkey, UniProt A2V9Z4 25-608). In words: ELISA, immobilised target. The procedure:
as §1, §2

Test [7] addresses B1. Description: ELISA, immobilised target. The source holds these as a separate data set.
The next test has as its target T3, Human VEGF-C. Description: ELISA, immobilised target.
The target of a further test is T6, Human PDGF-AB (human, UniProt P04085 87-211; P01127 82-190, limits assumed).
T6 construct: Heterodimer by its name
T6 sequence (P01127 82-190 limits assumed, chain 2 of 2, other chains not shown): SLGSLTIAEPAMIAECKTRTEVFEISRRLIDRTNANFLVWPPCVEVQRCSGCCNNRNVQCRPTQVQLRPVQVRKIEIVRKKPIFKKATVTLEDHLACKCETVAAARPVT
In words: ELISA, immobilised target.

For test [8], the target named is T4, human HGF. Description: HGF/cMet competition ELISA as in Example 3. The procedure:
(§3) After washing away any unbound substances, an enzyme-linked polyclonal antibody specific for VEGF-A is added to the wells. Following a wash to remove any unbound antibody-enzyme reagent, a substrate solution is added to the wells and color develops in proportion to the amount of VEGF-A bound in the initial step. The color development is stopped and the intensity of the color is measured. […] IC₅₀ values were calculated from such titration curves obtained as described above using Graph Pad Prism software and standard procedures known to the person skilled in the art. For designed ankyrin repeat domains with binding specificity to HGF, a cMet receptor competition assay was performed. For that purpose, 5 nM of human cMet receptor in PBS were immobilized on Maxisorp plates overnight at 4° C. After washing with PBS 0.05% TWEEN 20, the plate was blocked for 2 h with shaking at 300 rpm using PBS containing 0.05% TWEEN 20 and 0.25% Casein at RT. A constant concentration of 5 nM human HGF was pre-incubated for 30 min at RT with a 1000 nM-1 pM of Proteins #23, #26, #28, and #29 (1:4 dilution series each) on a dilution plate in PBS 0.05% TWEEN 20. After washing of the ELISA plate with PBS 0.05% TWEEN, pre-incubated samples were transferred to the ELISA plate and plate was incubated for 2 h at RT with shaking at 300 rpm. […] Readout was done at A450 using A620 as reference wavelength. […]

Test [9] addresses B1. Description: VEGF-A competition binding ELISA (FIG. 7C). The procedure:
as §3

The target in test [10] is biotinylated VEGF-A165 (Reliatech, #300-076Bi-L) (UniProt P15692-4 27-191, biotinylated). In words: VEGF-A/VEGFR-2 competition FRET (HTRF); 10 nM VEGF-R2-Fc, 10 nM biotinylated VEGF-A165. The procedure:
Such competition FRET and ELISA assays are well known to the person skilled in the art. […] In parallel, 5 μl of Streptavidin-Tb (streptavidin-Lumi4-terbium cryptate donor, Cisbio #610SATLB) and 5 μl of PAb anti-hIgG-de (D2-conjugated goat anti-Human IgG, Cisbio #61 HFCDAA) were added to 500 μl of PBST-BSA buffer and incubated for 20 minutes (2× reagent). Ten μl/well of 2× reagent were dispensed in a 384-well HTRF white-plate (Thermo Fisher Scientific Inc.) and 5 μl/well of four-time concentration hVEGF-R2-Fc fusion (Reliatech #SFC-008) were added. Five μl of the preincubated competition mixture were then added to wells. The complete reaction mix was incubated in the dark for 1 hour at room temperature before the fluorescence read out using a fluorescence reader. […] The read-out was done for A665 nm and […] wavelength (Excitation 340 nm).
Background: In TR-FRET formats the signal depends on donor and acceptor labels being close together.

Test [11] addresses B1. Description: VEGF-A competition ELISA as in Example 3; competitor: immobilised anti-VEGF-A monoclonal antibody. Here is the method:
as §3

T4 sequence (P14210 32-728 limits assumed): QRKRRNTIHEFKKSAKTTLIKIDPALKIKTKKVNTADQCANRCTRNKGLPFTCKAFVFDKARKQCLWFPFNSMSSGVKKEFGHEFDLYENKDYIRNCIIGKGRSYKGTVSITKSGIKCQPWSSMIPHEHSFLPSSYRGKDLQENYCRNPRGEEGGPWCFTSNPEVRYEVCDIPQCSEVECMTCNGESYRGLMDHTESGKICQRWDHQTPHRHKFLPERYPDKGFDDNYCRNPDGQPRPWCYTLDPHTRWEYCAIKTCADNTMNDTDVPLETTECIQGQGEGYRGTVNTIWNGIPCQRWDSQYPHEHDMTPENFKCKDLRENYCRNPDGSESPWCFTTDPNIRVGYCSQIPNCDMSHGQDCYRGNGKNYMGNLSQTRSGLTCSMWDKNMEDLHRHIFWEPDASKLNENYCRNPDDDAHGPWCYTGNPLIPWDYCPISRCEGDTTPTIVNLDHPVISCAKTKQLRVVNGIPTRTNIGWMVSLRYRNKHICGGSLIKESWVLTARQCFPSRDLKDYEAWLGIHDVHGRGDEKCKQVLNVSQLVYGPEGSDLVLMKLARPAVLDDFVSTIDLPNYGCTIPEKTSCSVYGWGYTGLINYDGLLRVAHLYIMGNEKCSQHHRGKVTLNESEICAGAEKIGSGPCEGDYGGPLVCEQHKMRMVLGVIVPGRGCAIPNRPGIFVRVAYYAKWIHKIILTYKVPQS
Sequence of mouse HGF (Q08048 33-728 limits assumed): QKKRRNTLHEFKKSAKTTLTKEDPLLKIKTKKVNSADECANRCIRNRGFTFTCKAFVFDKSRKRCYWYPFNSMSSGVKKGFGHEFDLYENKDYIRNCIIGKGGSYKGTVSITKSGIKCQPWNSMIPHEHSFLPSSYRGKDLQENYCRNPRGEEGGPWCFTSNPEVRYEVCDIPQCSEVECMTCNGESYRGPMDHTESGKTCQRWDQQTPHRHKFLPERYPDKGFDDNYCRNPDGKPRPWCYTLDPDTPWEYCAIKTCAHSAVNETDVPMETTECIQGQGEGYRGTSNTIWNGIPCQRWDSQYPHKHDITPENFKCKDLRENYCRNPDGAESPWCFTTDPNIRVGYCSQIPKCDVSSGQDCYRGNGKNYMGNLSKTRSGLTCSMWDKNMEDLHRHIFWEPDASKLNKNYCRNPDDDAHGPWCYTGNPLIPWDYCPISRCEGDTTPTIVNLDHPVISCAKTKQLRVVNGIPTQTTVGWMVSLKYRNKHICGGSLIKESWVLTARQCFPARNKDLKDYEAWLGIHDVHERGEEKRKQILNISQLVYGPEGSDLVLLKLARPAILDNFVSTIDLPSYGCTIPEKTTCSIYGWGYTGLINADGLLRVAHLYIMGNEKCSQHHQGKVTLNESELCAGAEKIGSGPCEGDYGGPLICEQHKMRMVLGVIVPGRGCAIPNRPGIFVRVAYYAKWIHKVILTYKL
Sequence of cynomolgus monkey serum albumin (A2V9Z4 25-608 limits assumed): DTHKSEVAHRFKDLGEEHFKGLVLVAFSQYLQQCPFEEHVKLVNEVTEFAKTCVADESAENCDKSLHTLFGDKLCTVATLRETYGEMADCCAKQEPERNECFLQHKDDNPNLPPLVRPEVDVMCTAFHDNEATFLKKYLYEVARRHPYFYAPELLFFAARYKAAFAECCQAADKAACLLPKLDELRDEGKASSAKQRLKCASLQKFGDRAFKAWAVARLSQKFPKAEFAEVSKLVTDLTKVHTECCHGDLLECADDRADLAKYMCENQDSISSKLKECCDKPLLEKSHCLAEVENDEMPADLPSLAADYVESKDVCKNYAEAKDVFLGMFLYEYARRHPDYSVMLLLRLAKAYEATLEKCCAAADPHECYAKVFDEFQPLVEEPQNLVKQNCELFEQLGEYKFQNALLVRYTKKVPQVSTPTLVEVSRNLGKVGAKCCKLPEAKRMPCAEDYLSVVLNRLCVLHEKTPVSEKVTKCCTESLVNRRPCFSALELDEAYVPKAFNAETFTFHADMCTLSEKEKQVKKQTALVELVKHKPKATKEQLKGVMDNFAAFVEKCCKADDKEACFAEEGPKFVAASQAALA
Sequence of rat serum albumin (P02770 25-608 limits assumed): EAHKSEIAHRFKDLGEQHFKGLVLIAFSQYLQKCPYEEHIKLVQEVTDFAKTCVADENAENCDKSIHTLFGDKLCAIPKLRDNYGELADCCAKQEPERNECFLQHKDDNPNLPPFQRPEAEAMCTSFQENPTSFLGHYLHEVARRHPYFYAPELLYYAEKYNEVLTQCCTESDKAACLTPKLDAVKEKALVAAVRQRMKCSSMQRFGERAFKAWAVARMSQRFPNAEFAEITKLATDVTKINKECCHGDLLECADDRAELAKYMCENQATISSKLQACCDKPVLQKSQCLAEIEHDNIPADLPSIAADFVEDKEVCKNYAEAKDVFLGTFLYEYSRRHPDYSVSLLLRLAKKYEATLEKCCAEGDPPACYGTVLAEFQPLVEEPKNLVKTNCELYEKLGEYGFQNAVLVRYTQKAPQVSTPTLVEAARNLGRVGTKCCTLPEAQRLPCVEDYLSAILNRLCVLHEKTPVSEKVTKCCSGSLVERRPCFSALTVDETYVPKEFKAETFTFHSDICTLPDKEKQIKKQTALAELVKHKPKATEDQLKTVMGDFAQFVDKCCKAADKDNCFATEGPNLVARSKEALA

For the molecule B1, the binding result in the test with human HGF [1] is “no binding (tested: 100 nM)”.

Consider B2, for which, in the test with human VEGF-A [2], the “Inhibition of VEGF-A-induced HUVEC proliferation, IC50” value is 5.7 ng/ml and 91.3 pM. The “inhibition of proliferation of HUVECs, IC50” value with human VEGF-A [2] was in the range of 0.1 to 0.15 nM. Moreover, the “Inhibition of cMet phosphorylation in A549 cells, IC50” value with human HGF [3] was determined as 0.184 nM. In addition, the “inhibition of cMet phosphorylation in A549 cells, IC50” value with human HGF [3] is less than 1 nM. The EC50 (as a rule, the concentration giving half of the maximal effect) with human VEGF-A [4] was 0.024 nM; with mouse serum albumin, 0.015 nM; with rat serum albumin, 0.017 nM; in the test with dog serum albumin, 0.023 nM; with mouse VEGF-A, 0.021 nM; in the test with rat VEGF-A, 0.022 nM. The EC50 in the test with human HGF [5] came to 0.024 nM; in the test with cynomolgus monkey HGF, 0.04 nM; with mouse HGF, 0.045 nM; with human serum albumin it was 0.013 nM; in test [6] it was 0.017 nM; with human VEGF-A [7] it was 0.024 nM. For the same molecule, the binding result in the test with Human VEGF-C and with Human PDGF-AB was “no binding (tested: 100 nM to 0.01 pM)” in each case. For the same molecule, the IC50 – broadly, the point on the concentration scale where inhibition reaches its midpoint – with human HGF [8] was 0.92 nM; with human VEGF-A [9], less than 0.01 nM; in [10], 0.6 nM; with human VEGF-A [11], 0.0045 nM.
